# B1: human mature b12 scFv (scFv, V domains shown)
# VH: QVQLVQSGAEVKKPGASVKVSCQASGYRFSNFVIHWVRQAPGQRFEWMGWINPYNGNKEFSAKFQDRVTFTADTSANTAYMELRSLRSADTAVYYCARVGPYSWDDSPQDNYYMDVWGKGTTVIVSS
# VL: EIVLTQSPGTLSLSPGERATFSCRSSHSIRSRRVAWYQHKPGQAPRLVIHGVSNRASGISDRFSGSGSGTDFTLTITRVEPEDFALYYCQVYGASSYTFGQGTKLERK
# Biological target: Envelope glycoprotein gp120Bal (HIV-1 isolate BaL (subtype B), clone …, UniProt Q6TAP7, strain)
# Test: ELISA
binder,measurement,value
B1,EC50,0.3 nM
